From the Human Domainome abundance scans (Beltran et al. 2025)
± gives the uncertainty stated by the source.

B1: POU domain, class 5, transcription factor 1, residues 134 to 212; numbered along this chain, Q01860 (parent)
chain: EESQDIKALQKELEQFAKLLKQKRITLGYTQADVGLTLGVLFGKVFSQTTICRFEALQLSFKNMCKLRPLLQKWVEEAD

Variants of: B1
Test: abundance fitness (aPCA) (normalised: wild type 0, dead -1); higher = more abundant; growth selection in yeast, the domain comes from the species named
Details: Homo sapiens

Abundance fitness of substitutions, site by site:
T37: P -0.621 ± 0.33, Q 0.394 ± 0.097, R 0.339 ± 0.054, S 0.153 ± 0.087, Y -0.193 ± 0.38
L38: A -0.275 ± 0.14, C -0.029 ± 0.25, E -0.701 ± 0.24, G -0.832 ± 0.18, H -0.313 ± 0.38, K -0.603 ± 0.31, M 0.185 ± 0.15, P -0.662 ± 0.41, Q -0.482 ± 0.36, R -0.511 ± 0.13, S -0.37 ± 0.17, T -0.035 ± 0.23, V -0.52 ± 0.14, W -0.214 ± 0.26
G39: A -0.534 ± 0.19, D -0.852 ± 0.42, E -0.469 ± 0.17, H -0.441 ± 0.39, K -0.187 ± 0.24, P -0.325 ± 0.27, R -0.318 ± 0.095, S -0.006 ± 0.092, T -0.613 ± 0.28, V -0.85 ± 0.27, W -0.712 ± 0.33
V40: C 0.354 ± 0.23, D -0.621 ± 0.44, E 0.1 ± 0.13, G -0.01 ± 0.076, H 0.12 ± 0.28, I 0.038 ± 0.27, K 0.198 ± 0.16, L -0.045 ± 0.13, M -0.087 ± 0.13, N 0.028 ± 0.28, S -0.026 ± 0.14, W -0.151 ± 0.14, Y -0.237 ± 0.35
L41: A -0.695 ± 0.38, D -0.244 ± 0.46, E -0.224 ± 0.21, G -0.934 ± 0.31, Q 0.048 ± 0.29, R -0.345 ± 0.15, T -0.04 ± 0.35, V -0.329 ± 0.17, W 0.046 ± 0.14
F42: A -0.014 ± 0.054, C 0.092 ± 0.15, D -0.481 ± 0.31, E -0.493 ± 0.096, G -0.091 ± 0.049, I -0.49 ± 0.19, K -0.262 ± 0.098, L -0.469 ± 0.081, M -0.607 ± 0.15, N -0.191 ± 0.2, P -0.654 ± 0.15, Q -0.875 ± 0.24, R -0.627 ± 0.076, S -0.055 ± 0.075, T 0.166 ± 0.07, V 0.127 ± 0.046, W -0.165 ± 0.08, Y -0.028 ± 0.27
G43: A -0.282 ± 0.3, C -0.485 ± 0.41, K -0.516 ± 0.31, N -0.341 ± 0.37, R -0.613 ± 0.17, S -0.651 ± 0.46, V -0.585 ± 0.23
K44: C -0.381 ± 0.18, D -0.262 ± 0.2, E 0.016 ± 0.077, G -0.382 ± 0.079, H -0.181 ± 0.27, M -0.374 ± 0.39, N -0.26 ± 0.23, P -0.3 ± 0.15, Q 0.018 ± 0.091, S -0.805 ± 0.33, V -0.441 ± 0.11, Y -0.489 ± 0.44
V45: A 0.127 ± 0.049, C -0.101 ± 0.093, D -0.28 ± 0.13, E 0.16 ± 0.05, F -0.15 ± 0.17, G -0.153 ± 0.043, H 0.013 ± 0.082, K 0.085 ± 0.1, L -0.338 ± 0.12, M -0.122 ± 0.21, N 0.001 ± 0.25, P 0.12 ± 0.077, Q 0.044 ± 0.091, R 0.036 ± 0.049, S 0.012 ± 0.077, T -0.005 ± 0.11, W -0.143 ± 0.058
F46: A -0.147 ± 0.13, C 0.311 ± 0.14, D 0.136 ± 0.19, E -0.293 ± 0.15, G -0.714 ± 0.16, I 0.107 ± 0.24, K -0.17 ± 0.3, L 0.211 ± 0.083, M 0.023 ± 0.17, P 0.029 ± 0.15, R -0.429 ± 0.14, S -0.553 ± 0.28, T 0.025 ± 0.2, V 0.411 ± 0.074, W -0.398 ± 0.19
S47: A -0.379 ± 0.22, D -0.323 ± 0.28, E -0.228 ± 0.2, F -0.094 ± 0.29, K -0.597 ± 0.48, L -0.756 ± 0.35, Q -0.196 ± 0.32, R -0.469 ± 0.15, T -0.169 ± 0.24
Q48: A 0.162 ± 0.15, D 0.164 ± 0.44, E 0.484 ± 0.14, F -0.343 ± 0.41, G 0.24 ± 0.076, K 0.079 ± 0.31, L -0.435 ± 0.35, M 0.348 ± 0.35, P 0.097 ± 0.23, R 0.126 ± 0.1, S 0.208 ± 0.17
T49: A 0.02 ± 0.11, C -0.524 ± 0.27, D 0.044 ± 0.16, E 0.186 ± 0.11, F -0.432 ± 0.46, G -0.243 ± 0.082, H 0.109 ± 0.21, K 0.235 ± 0.12, L -0.418 ± 0.12, N -0.111 ± 0.24, P -0.281 ± 0.23, Q 0.206 ± 0.096, S -0.072 ± 0.11, V -0.272 ± 0.097, W -0.259 ± 0.15
T50: A -0.316 ± 0.15, C -0.298 ± 0.31, E 0.231 ± 0.11, G -0.601 ± 0.13, H 0.017 ± 0.4, L -0.626 ± 0.32, M -0.27 ± 0.29, Q -0.411 ± 0.34, R -0.756 ± 0.19, S -0.542 ± 0.2, V 0.015 ± 0.087, W -0.43 ± 0.22
I51: A -0.916 ± 0.42, G -0.25 ± 0.15, K -0.067 ± 0.44, R -0.575 ± 0.34, T -0.338 ± 0.28, V -0.48 ± 0.27
C52: A 0.424 ± 0.15, D 0.203 ± 0.3, E 0.086 ± 0.31, F -0.343 ± 0.29, K 0.356 ± 0.25, L -0.07 ± 0.31, M 0.451 ± 0.26, N 0.175 ± 0.46, R 0.47 ± 0.18, S 0.341 ± 0.2, Y -0.604 ± 0.4
R53: A -0.06 ± 0.21, D -0.027 ± 0.23, E -0.078 ± 0.16, G -0.421 ± 0.16, H 0.118 ± 0.26, K 0.029 ± 0.41, P -0.287 ± 0.46, Q -0.074 ± 0.17, S -0.467 ± 0.34, T -0.356 ± 0.38
F54: A -1.13 ± 0.5, C -0.5 ± 0.38, E -0.828 ± 0.33, G -0.695 ± 0.14, K -0.662 ± 0.42, M -0.535 ± 0.24, P -0.719 ± 0.4, Q -0.891 ± 0.47, R -0.621 ± 0.12, S -0.562 ± 0.24, T 0.078 ± 0.29, V -0.625 ± 0.18, W -0.797 ± 0.22
E55: G -0.66 ± 0.15, I -0.365 ± 0.33, K -0.495 ± 0.26, M -0.907 ± 0.39, Q -0.498 ± 0.38, R -0.607 ± 0.16, S -0.418 ± 0.27, V -1.04 ± 0.41, W -0.555 ± 0.26
A56: C -0.098 ± 0.19, D 0.18 ± 0.13, E 0.067 ± 0.09, G -0.06 ± 0.076, H -0.245 ± 0.21, K -0.197 ± 0.18, M 0.159 ± 0.16, N 0.067 ± 0.28, P -0.345 ± 0.37, Q 0.059 ± 0.13, R -0.492 ± 0.17, S -0.002 ± 0.1, T -0.243 ± 0.24, V -0.464 ± 0.14, W -0.812 ± 0.23
L57: A -0.58 ± 0.22, C 0.035 ± 0.18, D -0.509 ± 0.34, E -0.694 ± 0.4, G 0.094 ± 0.078, H 0.298 ± 0.2, K -0.45 ± 0.28, M 0.152 ± 0.16, N 0.261 ± 0.34, P -0.005 ± 0.22, Q 0.106 ± 0.2, R -0.234 ± 0.098, S -0.306 ± 0.16, T -0.344 ± 0.29, V -0.066 ± 0.13, W -0.355 ± 0.17, Y 0.129 ± 0.29
Q58: A -0.5 ± 0.21, D -0.03 ± 0.19, E 0.126 ± 0.11, G -0.573 ± 0.25, K -0.035 ± 0.2, L -0.43 ± 0.3, R -0.31 ± 0.12, S -0.307 ± 0.17, T -0.097 ± 0.2, W -0.179 ± 0.34
L59: A -0.81 ± 0.35, C 0.009 ± 0.28, E 0.101 ± 0.17, G -0.432 ± 0.11, M -0.054 ± 0.17, N 0.124 ± 0.34, P -0.312 ± 0.37, R -0.561 ± 0.2, S -0.453 ± 0.22, T -0.533 ± 0.46, V -0.7 ± 0.25
S60: A -0.273 ± 0.14, C -0.449 ± 0.47, D 0.197 ± 0.15, E -0.173 ± 0.15, G -0.268 ± 0.09, I -0.284 ± 0.5, L -0.265 ± 0.21, P 0.084 ± 0.15, Q -0.415 ± 0.36, R -0.556 ± 0.14, V -0.843 ± 0.25, W -0.381 ± 0.31
F61: A -0.147 ± 0.12, C -0.441 ± 0.31, E -0.8 ± 0.21, G -0.466 ± 0.092, I 0.132 ± 0.24, K -0.206 ± 0.16, L 0.036 ± 0.12, M 0.04 ± 0.11, N -0.275 ± 0.29, P 0.202 ± 0.13, Q -0.111 ± 0.17, R -0.422 ± 0.1, T 0.063 ± 0.17, V 0.031 ± 0.097, W -0.035 ± 0.091, Y -0.09 ± 0.5
K62: C -0.489 ± 0.44, D 0.201 ± 0.17, E 0.038 ± 0.15, G -0.146 ± 0.083, H -0.19 ± 0.36, I -0.238 ± 0.4, L -0.579 ± 0.27, M 0.192 ± 0.23, P -0.08 ± 0.24, Q 0.046 ± 0.24, R -0.143 ± 0.083, S 0.041 ± 0.13, T -0.055 ± 0.19, V -0.24 ± 0.14
N63: A 0.045 ± 0.11, C -0.31 ± 0.24, D -0.093 ± 0.24, E 0.126 ± 0.14, F -0.2 ± 0.43, G -0.314 ± 0.1, H -0.183 ± 0.31, K 0.172 ± 0.23, L -0.336 ± 0.2, M -0.088 ± 0.33, Q -0.236 ± 0.24, R 0.037 ± 0.095, S 0.299 ± 0.11, T -0.303 ± 0.22, V -0.305 ± 0.13, W -0.832 ± 0.39, Y -0.387 ± 0.5
M64: A -0.251 ± 0.11, C -0.739 ± 0.33, D -0.816 ± 0.32, E -0.763 ± 0.23, F -0.8 ± 0.47
